Positions count from the first letter of the chain named.
Legend:
mutant hGDF15 8A [1] = target: T1, mutant hGDF15 8A (human, UniProt Q99988 197-308); test: sandwich ELISA, HuMAB2 immobilised, mutant hGDF15, goat polyclonal detection (relative value -0.1)
T1 construct: Expressed in ExpiCHO-S cells and used as culture supernatant
T1 chain: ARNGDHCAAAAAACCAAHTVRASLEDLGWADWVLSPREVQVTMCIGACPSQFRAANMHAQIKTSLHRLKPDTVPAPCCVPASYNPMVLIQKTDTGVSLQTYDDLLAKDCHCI

mutant hGDF15 T72A = target: T2, mutant hGDF15 T72A (human, UniProt Q99988 197-308); test: sandwich ELISA: antibody immobilised, WT or mutant hGDF15, goat polyclonal detection; N=3, mean ± SD
T2 construct: Expressed in ExpiCHO-S cells and used as culture supernatant in the ELISA
T2 chain: T1 chain with A8P, A9L, A10G, A11P, A12G, A13R, A16R, A17L, T72A

mutant hGDF15 4A [2] = target: T3, mutant hGDF15 4A (human, UniProt Q99988 197-308); test: as above
T3 construct: Expressed in ExpiCHO-S cells and used as culture supernatant
T3 chain: T1 chain with A8P, A9L, A10G, A11P

mutant hGDF15 H6A = target: T4, mutant hGDF15 H6A (human, UniProt Q99988 197-308); test: as above
T4 construct: Expressed in ExpiCHO-S cells and used as culture supernatant in the ELISA
T4 chain: T1 chain with H6A, A8P, A9L, A10G, A11P, A12G, A13R, A16R, A17L

mutant hGDF15 R13A = target: T5, mutant hGDF15 R13A (human, UniProt Q99988 197-308); test: as above
T5 construct: Expressed in ExpiCHO-S cells and used as culture supernatant in the ELISA
T5 chain: T1 chain with A8P, A9L, A10G, A11P, A12G, A16R, A17L

mutant hGDF15 8A [3] = target: T1, mutant hGDF15 8A; test: as above
mutant hGDF15 R16A = target: T6, mutant hGDF15 R16A (human, UniProt Q99988 197-308); test: as above
T6 construct: Expressed in ExpiCHO-S cells and used as culture supernatant in the ELISA
T6 chain: T1 chain with A8P, A9L, A10G, A11P, A12G, A13R, A17L

mutant hGDF15 R13A, R16A = target: T7, mutant hGDF15 R13A, R16A (human, UniProt Q99988 197-308); test: as above
T7 construct: Expressed in ExpiCHO-S cells and used as culture supernatant in the ELISA
T7 chain: T1 chain with A8P, A9L, A10G, A11P, A12G, A17L

mutant hGDF15 3A [4] = target: T8, mutant hGDF15 3A (human, UniProt Q99988 197-308); test: as above
T8 construct: Expressed in ExpiCHO-S cells and used as culture supernatant
T8 chain: T1 chain with A8P, A9L, A10G, A11P, A17L

mutant hGDF15 6A [5] = target: T9, mutant hGDF15 6A (human, UniProt Q99988 197-308); test: as above
T9 construct: Expressed in ExpiCHO-S cells and used as culture supernatant
T9 chain: T1 chain with A8P, A9L

Peptide 1 = target: T10, Peptide 1 (human, cysteine pairing not given here); test: ELISA, peptide immobilised, anti-human IgG-HRP detection
T10 construct: Synthesized by GenScript
T10 peptide: H-DHCPLGPGRCCRLH-OH
Procedure: (§1) Peptide 1 was unmodified at both ends, and Peptide 2 was synthesized by acetylating the amino terminus and amidating the carboxyl terminus for the purpose of mimicking the natural state because this region is an internal region within hGDF15. HuMAB2 antibody (10 μg/mL) was added at 100 μL/well to a 96-well plate on which a 10 μg/mL peptide solution had been added at 100 μL/well and the peptide had been immobilized, and thereby reacted with the peptide (25° C. for 3 hours). The bound HuMAB2 antibody was detected by adding a 5000-fold diluted anti-human IgG-HRP (Jackson ImmunoResearch, 109-035-008) at 100 μL/well and reacted at 25° C. for 1 hour. A plate on which hGDF15 (R&D Systems, 957-GD-025/CF) was immobilized was used as a control plate. The detection antibody in Human GDF15 ELISA Kit (R&D Systems, DY957) (Table 9) was used as a positive control antibody that reacts with the peptide, and Human IgG1 Isotype control (Abcam, ab206198) was used as a negative control antibody.

Peptide 2 = target: T11, Peptide 2 (human, cysteine pairing not given here); test: as above
T11 construct: Synthesized by GenScript
T11 peptide: Ac-DHCPLGPGRCCRLH-NH2
Procedure: as §1

[6] = target: T12, human GDF15 (hGDF15), mature, wild-type (human, UniProt Q99988 197-308); test: competition ELISA: GFRAL immobilised, biotinylated GDF15 plus serially diluted antibody; inhibition of GDF15-GFRAL complex formation
T12 construct: Bought recombinant protein: R&D Systems 957-GD-025/CF in most assays, 9279-GD in the crystal and the GDF15/GFRAL/RET assay; It was biotinylated in the GFRAL assay; also called hGDF15 (WT); rhGDF15
T12 sequence: T1 chain with A8P, A9L, A10G, A11P, A12G, A13R, A16R, A17L
Description: First, the effect on GDF15 and GFRAL complex formation was examined (FIG. 12). GFRAL (R&D systems, 9697-GR) was immobilized on a plate, and GDF15 (R&D systems, 957-GD/CF) biotinylated with EZ-Link Micro NHS-PEG4-Bitinylation Kit (Thermo Fisher Scientific, 21955) and a serially diluted solution of an anti-GDF15 monoclonal antibody (Table 26) were reacted with the plate. Human IgG1, kappa-Isotype Control (Abcam) was used as a negative control antibody. GDF15 bound to GFRAL was detected using Pierce High Sensitivity Streptavidin-HRP (Thermo Fisher Scientific, 21130). TMB 1-Component Microwell Peroxidase Substrate, SureBlue (SeraCare Life Sciences) was used for color development, and the reaction was stopped by adding a stop solution (Wako). Absorbance was measured at 450 nm (OD450) using Emax (Molecular Devices). The % of control value was calculated according to Equation-1 from the OD450 value when each antibody was added, with the OD450 value when no antibody was added as a control. The IC50 value was obtained by calculating the inhibition rate from the % of control value thus obtained according to Equation-2 and using an Excel macro for IC50 calculation.

mutant hGDF15 3A [7] = target: T8, mutant hGDF15 3A; test: sandwich ELISA, HuMAB2 immobilised, mutant hGDF15, goat polyclonal detection (relative value 0.4)
mutant hGDF15 4A [8] = target: T3, mutant hGDF15 4A; test: sandwich ELISA, HuMAB2 immobilised, mutant hGDF15, goat polyclonal detection (relative value 0.0)
mutant hGDF15 6A [9] = target: T9, mutant hGDF15 6A; test: as above

binding result (mutant hGDF15 8A [1]): no binding | relative binding (amount bound to 500 pg/mL hGDF15 = 100) (mutant hGDF15 T72A): 101 relative value (WT hGDF15 = 100) | relative binding (amount bound to 500 pg/mL hGDF15 = 100) (mutant hGDF15 4A [2]): 0 relative value (WT hGDF15 = 100) | relative binding (amount bound to 500 pg/mL hGDF15 = 100) (mutant hGDF15 H6A): 136 relative value (WT hGDF15 = 100) | relative binding (amount bound to 500 pg/mL hGDF15 = 100) (mutant hGDF15 R13A): 17.8 relative value (WT hGDF15 = 100) | relative binding (amount bound to 500 pg/mL hGDF15 = 100) (mutant hGDF15 8A [3]): -0.1 relative value (WT hGDF15 = 100) | relative binding (amount bound to 500 pg/mL hGDF15 = 100) (mutant hGDF15 R16A): 24 relative value (WT hGDF15 = 100) | relative binding (amount bound to 500 pg/mL hGDF15 = 100) (relative value (WT hGDF15 = 100)) (mutant hGDF15 R13A, R16A): 4.9 | relative binding (amount bound to 500 pg/mL hGDF15 = 100) (mutant hGDF15 3A [4]): 0.4 relative value (WT hGDF15 = 100) | relative binding (amount bound to 500 pg/mL hGDF15 = 100) (mutant hGDF15 6A [5]): 0 relative value (WT hGDF15 = 100) | binding result (Peptide 1): no binding (tested: 10 µg/mL) | binding result (Peptide 2): no binding (tested: 10 µg/mL) | IC50 [6]: > 500 nM | binding result (mutant hGDF15 3A [7]): no binding | binding result (mutant hGDF15 4A [8]): no binding | binding result (mutant hGDF15 6A [9]): no binding
B1: HuMAB2 (antibody, human IgG1, kappa, V domains shown)
VH: QVQLQESGPGLVKPSETLSLTCTVSGFSINSDCYWIWIRQPPGKGLEYIGYTFYSGITYYNPSLASRTTISRDTSKNQFSLKLSSVTAADTAVYYCARDCDYAMDYWGQGTLVTVSS
VL: DIQMTQSPSSLSASVGDRVTITCRASQDISNYLNWYQQKPGKAVKLLIHYTSTLHSGVPSRFSGSGSGTDYTLTISSLQPEDFATYFCQQGNTLPWTFGQGTKLEIKR
notes: Humanized MAB2 joined to the constant region of bevacizumab; The printed copies of the L chain differ from each other; also called HuMAB2 antibody; H3delK/L7

From US20230036655A1 (OTSUKA PHARMACEUTICAL, published 2023)
